{"source": "paper PMC11544220", "about": "(Scientific Reports, 2024)", "binders": {"B1": {"name": "Mycobacterium tuberculosis dUTPase, wild type (MtDUT^WT) (enzyme)", "chain": "MSTTLAIVRLDPGLPLPSRAHDGDAGVDLYSAEDVELAPGRRALVRTGVAVAVPFGMVGLVHPRSGLATRVGLSIVNSPGTIDAGYRGEIKVALINLDPAAPIVVHRGDRIAQLLVQRVELVELVEVSSFDEAGLASTSRGDGGHGSSGGHASL"}}, "key": {"[1]": {"biological_target": "Stl^NT-Avi, biotinylated Stl 1-159 for the BLI sensor (Staphylococcus aureus, UniProt Q9F0J8 1-159, biotin on the Avi-tag)", "test": "BLI"}, "[2]": {"biological_target": "Stl-Avi, biotinylated full-length Stl for the BLI sensor (Staphylococcus aureus, UniProt Q9F0J8 1-267, biotin on the Avi-tag)", "test": "BLI"}, "native MS": {"biological_target": "the molecule itself", "test": "native MS"}}}
{"binder": "B1", "values": [{"measurement": "Kd", "setting": "[1]", "result": "0.19 ± 0.001", "unit": "nM"}, {"measurement": "koff", "setting": "[1]", "result": "0.000103 ± 0.04", "unit": "s⁻¹"}, {"measurement": "kon", "setting": "[1]", "result": "542000 ± 0.01", "unit": "M⁻¹ s⁻¹"}, {"measurement": "Kd", "setting": "[2]", "result": "< 0.001", "unit": "nM"}, {"measurement": "koff", "setting": "[2]", "result": "< 1e-07", "unit": "s⁻¹"}, {"measurement": "kon", "setting": "[2]", "result": "270000 ± 0.01", "unit": "M⁻¹ s⁻¹"}, {"measurement": "stoichiometry N", "setting": "native MS", "result": 3, "unit": "subunits in the oligomer"}]}
